Tests used:
ACE2 receptor [1] = target: ACE2 receptor (UniProt Q9BYF1); test: ELISA; competitive ELISA of ACE2 binding; DCFHP 100% adsorbed to Alhydrogel (no phosphate), time zero against storage at 4 °C for 3-21 days (mean 10 days); read-out is the native antigen concentration against a reference, target 50 mcg/mL
ACE2 receptor [2] = target: ACE2 receptor (UniProt Q9BYF1); test: ELISA; competitive ELISA of ACE2 binding; Alhydrogel-adsorbed DCFHP incubated overnight at 4, 40 or 50 °C, compared with a reference sample adsorbed on the day of the assay

Chain of UniProt Q9BYF1 (Q9BYF1 18-805): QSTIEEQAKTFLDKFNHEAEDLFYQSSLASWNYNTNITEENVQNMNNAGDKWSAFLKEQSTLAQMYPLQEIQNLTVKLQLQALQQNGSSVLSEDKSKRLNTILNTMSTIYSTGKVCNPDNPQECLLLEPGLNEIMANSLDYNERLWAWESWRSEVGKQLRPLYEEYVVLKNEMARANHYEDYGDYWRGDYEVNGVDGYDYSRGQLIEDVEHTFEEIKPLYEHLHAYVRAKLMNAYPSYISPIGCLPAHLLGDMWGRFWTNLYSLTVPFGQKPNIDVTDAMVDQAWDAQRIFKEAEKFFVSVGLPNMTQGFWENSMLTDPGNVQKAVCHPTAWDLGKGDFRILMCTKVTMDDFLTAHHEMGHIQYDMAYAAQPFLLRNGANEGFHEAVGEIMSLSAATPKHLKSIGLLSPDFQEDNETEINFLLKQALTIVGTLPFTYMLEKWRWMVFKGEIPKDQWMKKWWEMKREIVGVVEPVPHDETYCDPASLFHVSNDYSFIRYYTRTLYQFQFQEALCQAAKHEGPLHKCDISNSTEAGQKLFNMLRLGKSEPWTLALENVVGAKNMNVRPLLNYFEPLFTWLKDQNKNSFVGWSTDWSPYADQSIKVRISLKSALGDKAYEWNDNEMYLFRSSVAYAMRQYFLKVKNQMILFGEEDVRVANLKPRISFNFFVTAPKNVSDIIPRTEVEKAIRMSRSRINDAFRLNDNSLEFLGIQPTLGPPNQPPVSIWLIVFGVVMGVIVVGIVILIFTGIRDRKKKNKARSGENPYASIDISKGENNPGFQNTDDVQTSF

Substance: Delta-C70-Ferritin-HexaPro SARS-CoV-2 spike ferritin nanoparticle produced in Expi293 cells
- native antigen concentration by ACE2 competitive ELISA, freshly adsorbed (time zero) (ACE2 receptor [1]): 48 µg/mL
- native antigen concentration by ACE2 competitive ELISA, stored at 4°C for 3-21 days (ACE2 receptor [1]): 75 µg/mL
- loss of ACE2 binding after overnight incubation at 40°C (AH-adsorbed) (ACE2 receptor [2]): 60%
- loss of ACE2 binding after overnight incubation at 50°C (AH-adsorbed) (ACE2 receptor [2]): 80%
